# Assay results as given in patent US11512141B2, “Fibrinogen-like protein 2 (FGL2) monoclonal antibodies and their use in cancer detection and treatment” (Board of Regents, The University of Texas System, priority 2017, dated 2022).
# B1: F48: anti-FGL2 monoclonal antibody of hybridoma clone F48; heavy chain SEQ ID NO:2, light chain SEQ ID NO:4 (antibody, V domains shown)
# VH: MGWSCIILFLVATATGVHSQVQLQQPGAELVKPGASVKLSCKASGYTFASYWMQWVKQRPGQGLEWIGEIDPSDSYTNYNQKFKGKATLTVDTSSNTAYMQLSSLTSEDSAVYYCARNGNYYGSTYDYWGQGTTLTVSS
# VL: MMSSAQFLGLLLLCFQGTRCDIQMTQTTSSLSASLGDRVTISCRASQDVSNYLNWYQQKPDGSVKLLIYYTSRLHSGVPSRFSGSGSGAHYSLTISNLEQEDIATYFCQQGNTLPPWTFGGGTKLEIK
# Tests used:
# [1] = test system: CD39 and CD73 regulatory T cell expression; test: Blocking of CD39 and CD73 regulatory T cell expression; assay type: cell-based
# Protocol: The present studies developed and characterized two anti-FGL2 monoclonal antibodies, F48 and F59. […] The effects of the anti-FGL2 antibodies were evaluated alone and in combination with other anti-cancer therapies such as anti-PDL1 antibody and chemotherapy on several mouse tumor models, including glioblastoma, melanoma, and lung cancer.
# glioma GL261 tumors = test: Mouse glioma GL261 tumor model, alone or with temozolomide; assay type: in vivo; settings: 20 mg/kg TMZ + 200 μg antibody
# Protocol: FIGS. 3A-3C: (FIG. 3A) Percent survival of glioma GL261 tumors treated with temozolomide (TMZ) in combination with IgG, F59, anti-PDL1, or F48. […] Western blot analysis of FLG2 expression with various antibodies. FGLS expression is reduced in tumors treated with anti-FGL2 antibodies. (FIG. 3C) Percent survival of mice inoculated with GL261 and treated with IgG control or F59.
# Next, the effect of the combination of temozolomide (TMZ) and anti-PDL1+anti-FGL2 antibody was determined on the mouse glioma GL261 tumor model progression in vivo.
# Percent survival of glioma GL261 tumors treated with temozolomide (TMZ) in combination with IgG, F59, anti-PDL1, or F48 (FIG. 3).
# OT-I T cells = test: Activation-induced OT-I T cell proliferation; assay type: cell-based; settings: OT-I T cells activated with αCD3/CD28, with or without OVA peptide
# Text: OT-I T cells were activated with αCD3/CD28 and then divided into different dishes to check the proliferation in the absence or presence of +OVA peptide (pep), absence or presence FGL2 mAb F48, and co-absence or presence of F48. Cell numbers were counted on different days.
# GL261 glioblastoma cells = test: GL261 glioblastoma subcutaneous mouse model, M2 cell population in tumors; assay type: in vivo, mice; settings: 100 μg antibody i.v. every 3 days, from 5-7 days after s.c. GL261 inoculation; vs IgG control
# Text: FIGS. 1A-1C: (FIG. 1A) FGL2 expression in normal brain and GBM tissue shown by immunohistochemistry. Increased staining is observed in the glioma tissues. (FIG. 1B) Flow cytometry analysis for the expression of F4/80 and CD206 in glioblastoma tumor cells treated with IgG control or F48 anti-FGL2 antibody. (FIG. 1C) Percentage of M2 macrophages in the glioblastoma tumors treated with IgG control or F48 anti-FGL2 antibody.
# To screen for the anti-FGL2 antibody F48 function in mice, GL261 glioblastoma cells (1×10^5 in 30 μL) were injected into the back of mice by subcutaneous injection. The first treatment with antibody comprised 100 μg antibody by intravenous injection starting at about 5-7 days after tumor inoculation. The antibody treatment was repeated every 3 days and the mice were sacrificed at about 14-21 days.
# FGL2 = test: Cross-species binding of anti-FGL2 antibodies
# Text: In particular embodiments, the anti-FGL2 monoclonal antibodies provided herein are the F48 and F59 antibodies. […] Given that the combination of CD39 and CD73 degrade ATP, ADP, and AMP to adenosine, they can be viewed as “immunological switches” that shift ATP-driven pro-inflammatory immune cell activity toward an anti-inflammatory state mediated by adenosine. CD39 and CD73 both play a role in regulating the function of several immune cell types, including lymphocytes, neutrophils, monocytes/macrophages, dendritic cells, and endothelial cells (Antonioli et al., 2013).
molecule,measurement,setting,value
B1,block CD39 and CD73 regulatory T cell expression,[1],able to block CD39 and CD73 regulatory T cell expression
same,percent survival,glioma GL261 tumors,significantly improve glioma survival
same,activation-induced T cell growth (cell numbers),OT-I T cells,promote activation-induced T cell growth
same,percentage of M2 cell population in the tumors,GL261 glioblastoma cells,suppression of the percentage of M2 cell population in the tumors
same,cross-species binding,FGL2,share the property of cross-species binding
